Source: US20240101688A1 (MYTHIC THERAPEUTICS, published 2024)
Blank lines part the entries; values can stand above or below the binder they belong to.

Key:
[1] = molecular target: T1, MET (cMET, Sino Biological Cat. No. 10692-H08H) (UniProt P08581 25-932); assay: BLI: antibody captured on anti-human Fc biosensor, MET in solution; one run at pH 7.4 (black) and one at pH 5.4 (grey); association 0-120 s, then dissociation
T1 construct: Soluble analyte of the BLI assays
Description: After allowing for four days of protein expression, cell culture supernatants were collected, quantified by SDS-PAGE analysis, and the pH dependence of the variant was evaluated using biolayer interferometry (BLI) on an Octet RED 96e instrument. Briefly, cell culture supernatants were diluted based on qualitative expression level of the variant determined by visual examination of SDS-PAGE gels, 5 μL of cell culture supernatant was diluted into 195 μL of 1×PBST, pH 7.4 for high expressors, 25 μL of cell culture supernatant was diluted into 175 μL of 1×PBST, pH 7.4 for medium expressors and 100 μL of cell culture supernatant was diluted into 100 μL of 1×PBST, pH 7.4 for low expressors for loading onto the sensor tips. Diluted supernatants were then captured on an anti-human Fc sensor (Forte Bio).

[2] = molecular target: T2, MET Proto-Oncogene, Receptor Tyrosine Kinase (MET), on cells (human, UniProt P08581 25-1390); assay: affinity on HUVEC against affinity on Detroit-562, flow cytometry, pH 7.4
T2 construct: also called cMET; c-Met
Description: (§1) Measurement of the affinity of pH-engineered antibodies specific for MET was performed by FACS analysis on cell lines with ranges of cMET expression; Detroit-562 cells (ATCC; CCL-138), NCI-H1975 (ATCC CRL-5908) and HUVEC (C2519A, Lonza). Cell lines selected for this study were obtained from commercial sources and cultured using manufacturer recommended conditions. All cell lines were cultured upon receipt, expanded and cryopreserved at a similar passage number for use in the affinity experiments. Briefly, 1.0×10\hat{ }5 cells that express MET are plated per well in a 96-well plate in 100 μL media. The cells are washed two times with 200 μL of FACS buffer (1×PBS containing 3% Fetal Bovine Serum) at pH 7.4. The purified protein samples are diluted into FACS buffer at pH 7.4, for a titration from 100 nM to 1 pM, and added to the cells and allowed to bind for 2 hours on ice. After incubation with the primary antibodies, cells are washed twice as before, and then 100 μl of secondary goat anti-Human AF488 (IgG Cross-Adsorbed polyclonal secondary antibody), diluted 1:200, is added in FACS buffer pH 7.4, and incubated for 1 hour on ice. The plates are washed twice Binding is read on a flow cytometer (Accuri C6, BD Biosciences). Binding is observed as a shift in the FL1 signal (as a mean fluorescence intensity) versus secondary alone.

[3] = molecular target: T2, MET Proto-Oncogene, Receptor Tyrosine …; assay: flow cytometry titration on Detroit-562 cells (125K/cell), pH 7.4; printed as Affinity at pH 7.4
Description: as §1

[4] = molecular target: T2, MET Proto-Oncogene, Receptor Tyrosine …; assay: flow cytometry titration on HUVEC cells (8k/cell), pH 7.4; printed as Affinity at pH 7.4; HUVEC cells (8k/cell), pH 7.4
Description: as §1

[5] = molecular target: T1, MET (cMET, Sino Biological Cat. No. …); assay: BLI: antibody captured on anti-human Fc biosensor, MET in solution; three runs: pH 7.4 throughout, pH 6.4 throughout, association at pH 7.4 then release at lower pH (key on the sheet: pH 5.4; legend paragraph 84: pH 6.4); association 0-120 s

T2 sequence (P08581 25-1390): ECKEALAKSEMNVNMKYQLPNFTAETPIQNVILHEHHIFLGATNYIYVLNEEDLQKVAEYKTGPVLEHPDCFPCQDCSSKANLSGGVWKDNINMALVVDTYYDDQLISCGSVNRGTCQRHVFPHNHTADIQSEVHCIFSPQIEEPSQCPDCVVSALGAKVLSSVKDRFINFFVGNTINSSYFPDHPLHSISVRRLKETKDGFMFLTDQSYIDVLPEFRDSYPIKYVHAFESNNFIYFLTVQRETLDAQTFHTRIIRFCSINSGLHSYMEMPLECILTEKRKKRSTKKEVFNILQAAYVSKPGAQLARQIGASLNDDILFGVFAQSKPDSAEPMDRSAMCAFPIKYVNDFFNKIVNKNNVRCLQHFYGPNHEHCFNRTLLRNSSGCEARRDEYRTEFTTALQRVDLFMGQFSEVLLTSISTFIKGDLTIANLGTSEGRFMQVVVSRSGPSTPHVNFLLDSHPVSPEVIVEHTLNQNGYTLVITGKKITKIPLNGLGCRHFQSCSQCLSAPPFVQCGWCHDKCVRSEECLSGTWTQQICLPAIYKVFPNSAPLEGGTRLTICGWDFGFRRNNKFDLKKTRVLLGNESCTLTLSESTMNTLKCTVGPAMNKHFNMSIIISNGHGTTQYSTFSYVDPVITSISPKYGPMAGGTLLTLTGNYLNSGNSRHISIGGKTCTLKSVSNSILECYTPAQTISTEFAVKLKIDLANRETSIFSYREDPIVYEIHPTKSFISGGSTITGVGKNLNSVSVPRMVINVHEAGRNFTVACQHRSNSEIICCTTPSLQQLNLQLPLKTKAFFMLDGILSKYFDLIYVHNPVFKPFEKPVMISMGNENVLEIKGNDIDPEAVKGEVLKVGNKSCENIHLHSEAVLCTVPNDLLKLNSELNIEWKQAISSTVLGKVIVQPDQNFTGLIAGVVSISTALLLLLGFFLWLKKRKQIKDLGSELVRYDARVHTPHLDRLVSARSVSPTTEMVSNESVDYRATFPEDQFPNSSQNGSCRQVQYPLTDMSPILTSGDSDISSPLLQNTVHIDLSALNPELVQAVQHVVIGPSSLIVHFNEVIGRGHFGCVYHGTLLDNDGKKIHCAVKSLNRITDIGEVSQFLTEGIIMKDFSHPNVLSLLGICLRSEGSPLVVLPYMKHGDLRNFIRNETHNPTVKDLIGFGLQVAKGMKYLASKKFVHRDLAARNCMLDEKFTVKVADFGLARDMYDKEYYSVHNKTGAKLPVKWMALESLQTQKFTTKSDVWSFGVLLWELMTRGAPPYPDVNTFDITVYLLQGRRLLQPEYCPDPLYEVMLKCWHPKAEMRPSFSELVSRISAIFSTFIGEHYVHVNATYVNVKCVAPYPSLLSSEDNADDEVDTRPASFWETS
T1 sequence (P08581 25-932 limits assumed): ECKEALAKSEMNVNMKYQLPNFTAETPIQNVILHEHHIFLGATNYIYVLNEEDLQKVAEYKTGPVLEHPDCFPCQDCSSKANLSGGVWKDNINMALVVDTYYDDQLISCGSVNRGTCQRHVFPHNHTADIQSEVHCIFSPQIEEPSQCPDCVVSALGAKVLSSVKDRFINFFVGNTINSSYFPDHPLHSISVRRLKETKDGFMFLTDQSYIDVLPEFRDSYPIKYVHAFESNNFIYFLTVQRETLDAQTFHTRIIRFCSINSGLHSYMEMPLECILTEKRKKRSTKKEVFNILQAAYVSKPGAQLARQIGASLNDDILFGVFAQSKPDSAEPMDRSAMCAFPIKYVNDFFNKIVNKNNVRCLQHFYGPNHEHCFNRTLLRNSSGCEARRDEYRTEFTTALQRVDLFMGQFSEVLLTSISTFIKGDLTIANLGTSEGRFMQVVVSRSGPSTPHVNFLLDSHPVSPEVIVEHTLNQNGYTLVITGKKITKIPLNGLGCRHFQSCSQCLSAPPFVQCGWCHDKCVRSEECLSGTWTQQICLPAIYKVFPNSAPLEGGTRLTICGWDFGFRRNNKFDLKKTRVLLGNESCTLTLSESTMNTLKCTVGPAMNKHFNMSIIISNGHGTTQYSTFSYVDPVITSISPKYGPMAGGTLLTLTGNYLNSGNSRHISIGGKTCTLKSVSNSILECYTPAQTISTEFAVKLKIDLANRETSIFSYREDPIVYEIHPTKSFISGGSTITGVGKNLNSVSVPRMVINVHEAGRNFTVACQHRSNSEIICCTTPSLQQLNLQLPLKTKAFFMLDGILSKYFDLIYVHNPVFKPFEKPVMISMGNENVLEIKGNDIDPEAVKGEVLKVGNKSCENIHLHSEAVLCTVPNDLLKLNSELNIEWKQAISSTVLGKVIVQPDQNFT

binding result [1]: binds
B1: MYT4313 (antibody, V domains shown)
VH: QVQLVQSGAEVKKPGASVKVSCKASGYTFTSYWMHWVKQAPGQGLDWIGYIKPSTDNTHYNQKFKDKATLTADKSTSTAYMELSSLRSEDTAVYYCARSYGHYPLMDYWGQGTTVTVSS
VL: QIVLTQSPAILSLSPGERATLSCSASSSVTSNYLYWYQQKPGSSPKLLIYSTSNLASGVPARFSGSGSGTSYTLTISSLEAEDAASYFCHQWSSYPPTFGSGTKLEIKR
notes: P3D12 variant

Fold Avidity [2]: > 220 fold
Kd [3]: 0.903 nM
Kd [4]: > 200 nM
B2: MYT4325 (antibody, V domains shown)
VH: QVQLVQSGAEVKKPGASVKVSCKASGYTFTSYWMHWVKQAPGQGLDWIGYIKPSTDNTHYNQKFKDKATLTADKSTSTAYMELSSLRSEDTAVYYCARSYGHYPLMHYWGQGTTVTVSS
VL: QIVLTQSPAILSLSPGERATLSCSASSSVTSNYLYWYQQKPGSSPKLLIYSTSNLASGVPARFSGSGSGTSYTLTISSLEAEDAASYFCHQWSSYPPTFGSGTKLEIKR
notes: P3D12 variant

binding result [5]: binds
B3: MYT4940 (antibody, V domains shown)
VH: QVQLVQSGAEVKKPGASVKVSCKASGYIFTAYTMHWVRQAPGQGLEWMGWIKPNNGLANYAQKFQGRVTMTRDTSISTAYMELSRLRSDDTAVYYCARHEITTEFDHWGQGTLVTVSS
VL: DIVMTQSPDSLAVSLGERATINCKSSESVDSYANSHLHWYQQKPGQPPKLLIYRASTRESGVPDRFSGSGSGTDFTLTISSLQAEDVAVYYCQQSKEDPLTFGGGTKVEIKR
notes: Telisotuzumab variant
